Data set [1] has as its target T1, EA256 (EhRNaseIII-AadsRBD chimera) (Entamoeba histolytica / Aquifex aeolicus, UniProt C4LU64 2-256+O67082:145-221, internal_change).
T1 sequence: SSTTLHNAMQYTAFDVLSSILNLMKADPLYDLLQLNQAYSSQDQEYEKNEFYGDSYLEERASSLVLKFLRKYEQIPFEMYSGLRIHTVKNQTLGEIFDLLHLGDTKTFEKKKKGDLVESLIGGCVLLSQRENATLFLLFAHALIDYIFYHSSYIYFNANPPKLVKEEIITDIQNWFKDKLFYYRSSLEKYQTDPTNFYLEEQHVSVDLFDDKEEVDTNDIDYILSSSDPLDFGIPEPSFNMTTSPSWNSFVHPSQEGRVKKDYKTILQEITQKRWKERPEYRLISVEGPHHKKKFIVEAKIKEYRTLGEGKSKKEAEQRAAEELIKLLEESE
Briefly: EMSA; 5 mM Mg2+; completely bound at 1e-4 M; EMSA (1x): 30 mM Tris-HCl pH 7.5, 30 mM NaCl, 5 mM MgCl2, 1 mM DTT, 0.1 mM EDTA, 5% glycerol; room temperature 10 min then ice 20 min; 6% native PAGE, 0.5x TBE. As to conditions: protein: recombinant, tags: His-Sumo removed by Ulp1, chain copies: 2, blunt. (A gel shift assay detects complexes by their altered migration in electrophoresis.)

The target of data set [2] is T1, EA256 (EhRNaseIII-AadsRBD chimera). The experiment in a line: EMSA; 5 mM Mg2+; more than 70% bound at 1e-4 M; EMSA (1x): 30 mM Tris-HCl pH 7.5, 30 mM NaCl, 5 mM MgCl2, 1 mM DTT, 0.1 mM EDTA, 5% glycerol; room temperature 10 min then ice 20 min; 6% native PAGE, 0.5x TBE. As to conditions: protein: recombinant; tags: His-Sumo removed by Ulp1; chain copies: 2; blunt, 25 bp.

We go through four molecules from publication PMC5357909, “Structural and functional studies of a noncanonical Dicer from Entamoeba histolytica” (Scientific Reports, 2017).

B1: RNA50 (dsRNA)
RNA 1: GGGAGAAACGCGGCCUCUUCUUAUUUAUGGCGACAUGUUGUGCCUCUCCC
RNA 2: GGGAGAGGCACAACAUGUCGCCAUAAAUAAGAAGAGGCCGCGUUUCUCCC
On to B1, for which the “apparent K (half saturation)” value in data set [1] (50 bp) was below 100 µM.

B2: RNA100 (dsRNA)
RNA 1: GGGAGAAACGCGGCCUCUUCUUAUUUAUGGCGACAUGUUGUGCCACAUAUUGAGCCAGUAGCGCGGUGUAUUAUACCAGACCUUAUUGGUAUGGUCUCCC
RNA 2: GGGAGACCAUACCAAUAAGGUCUGGUAUAAUACACCGCGCUACUGGCUCAAUAUGUGGCACAACAUGUCGCCAUAAAUAAGAAGAGGCCGCGUUUCUCCC
In the case of B2, in data set [1] (100 bp), the “apparent K (half saturation)” value was below 100 µM.

B3: RNA70 (dsRNA)
RNA 1: GGGAGAAACGCGGCCUCUUCUUAUUUAUGGCGACAUGUUGUGCCACAUAUUGAGCCAGUAGCGCUCUCCC
RNA 2: GGGAGAGCGCUACUGGCUCAAUAUGUGGCACAACAUGUCGCCAUAAAUAAGAAGAGGCCGCGUUUCUCCC
In the case of B3, the “apparent K (half saturation)” value in data set [1] (70 bp) is below 100 µM.

B4: RNA25 (dsRNA)
RNA 1: GGGAGAAACGCGGCCUCUUUCUCCC
RNA 2: GGGAGAAAGAGGCCGCGUUUCUCCC
With B4, the “apparent K (half saturation)” value in data set [2] is below 100 µM.
